Laboratory results taken from patent US20250297004A1, “NECTIN-4 BINDING AGENTS” (INNATE PHARMA, priority 2022, published 2025).
Positions count from the first letter of the chain named.

T1: human Nectin-4 expressed on cells (human, UniProt Q96NY8 32-510)
T1 sequence: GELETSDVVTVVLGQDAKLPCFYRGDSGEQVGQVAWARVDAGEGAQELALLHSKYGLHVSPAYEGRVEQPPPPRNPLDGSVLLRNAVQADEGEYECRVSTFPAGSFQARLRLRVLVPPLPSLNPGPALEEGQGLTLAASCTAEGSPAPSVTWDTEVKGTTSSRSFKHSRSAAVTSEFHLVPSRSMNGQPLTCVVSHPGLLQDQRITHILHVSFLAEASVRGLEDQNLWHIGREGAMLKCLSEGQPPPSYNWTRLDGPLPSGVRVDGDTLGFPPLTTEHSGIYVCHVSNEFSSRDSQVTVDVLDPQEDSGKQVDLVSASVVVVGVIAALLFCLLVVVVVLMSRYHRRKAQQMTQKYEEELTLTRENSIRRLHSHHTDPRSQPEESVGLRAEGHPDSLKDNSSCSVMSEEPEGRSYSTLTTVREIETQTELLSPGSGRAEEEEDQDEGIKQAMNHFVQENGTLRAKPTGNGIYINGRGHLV

T2: human Nectin-4 (Homo sapiens, UniProt Q96NY8)
T2 sequence (Q96NY8 32-510): T1 sequence

B1: H4L2 (antibody, human IgG1, V domains shown)
VH: QVQLVQSGAEVKKPGASVKVSCKASGYIFTSYWMHWVKQAPGQGLEWMGEIDPSDSYTNYNQKFKGRVTMTLDKSTSTTYMELSSLRSEDTAVYYCARGYGNYGDYWGQGTLVTVSS
VL: DVVMTQSPLSNPVTPGEPASISCRSSKSLLHSNGITYLYWYLQKPGQSPQLLIYQMSNLASGVPDRFSSSGSGTDFTLKISRVEAEDVGVYYCAQNLELPWTFGGGTKVEIK
notes: human IgG1 isotype
B2: H4L3 (antibody, human IgG1, V domains shown)
VH: B1 VH
VL: B1 VL with P8A
notes: human IgG1 isotype
B3: H5L1 (antibody, human IgG1, V domains shown)
VH: B1 VH with A40R
VL: B1 VL with N11L
notes: human IgG1 isotype
B4: H5L2 (antibody, human IgG1, V domains shown)
VH: B1 VH with A40R
VL: B1 VL
notes: human IgG1 isotype
B5: H6L1 (antibody, human IgG1, V domains shown)
VH: B1 VH with A40R, M48I
VL: B1 VL with N11L
notes: human IgG1 isotype
B6: H6L2 (antibody, human IgG1, V domains shown)
VH: B1 VH with A40R, M48I
VL: B1 VL
notes: human IgG1 isotype
B7: H6L3 (antibody, human IgG1, V domains shown)
VH: B1 VH with A40R, M48I
VL: B1 VL with P8A
notes: human IgG1 isotype
B8: H7L1 (antibody, human IgG1, V domains shown)
VH: B1 VH with A40R, M48I, M70L
VL: B1 VL with N11L
notes: human IgG1 isotype
B9: H7L2 (antibody, human IgG1, V domains shown)
VH: B1 VH with A40R, M48I, M70L
VL: B1 VL
notes: human IgG1 isotype
B10: H7L3 (antibody, human IgG1, V domains shown)
VH: B1 VH with A40R, M48I, M70L
VL: B1 VL with P8A
notes: human IgG1 isotype
B11: H8L1 (antibody, human IgG1, V domains shown)
VH: B1 VH with M48I
VL: B1 VL with N11L
notes: human IgG1 isotype

molecular target: human Nectin-4 (protein used in the SPR affinity measurements) (human) (UniProt Q96NY8); test: SPR, human IgG1; settings: not given

| Molecule | Kd | koff | kon |
| --- | --- | --- | --- |
| B1 | 26.8 nM | 0.0054 s⁻¹ | 200000 M⁻¹ s⁻¹ |
| B2 | 21.6 nM | 0.0052 s⁻¹ | 250000 M⁻¹ s⁻¹ |
| B3 | 24.5 nM | 0.0056 s⁻¹ | 230000 M⁻¹ s⁻¹ |
| B4 | 23.8 nM | 0.0053 s⁻¹ | 220000 M⁻¹ s⁻¹ |
| B5 | 32.1 nM | 0.0062 s⁻¹ | 190000 M⁻¹ s⁻¹ |
| B6 | 41.3 nM | 0.0058 s⁻¹ | 140000 M⁻¹ s⁻¹ |
| B7 | 38.6 nM | 0.0051 s⁻¹ | 130000 M⁻¹ s⁻¹ |
| B8 | 29.7 nM | 0.006 s⁻¹ | 200000 M⁻¹ s⁻¹ |
| B9 | 39.5 nM | 0.0063 s⁻¹ | 160000 M⁻¹ s⁻¹ |
| B10 | 49 nM | 0.0055 s⁻¹ | 110000 M⁻¹ s⁻¹ |
| B11 | 19.2 nM | 0.0048 s⁻¹ | 250000 M⁻¹ s⁻¹ |

molecular target: T1, human Nectin-4 expressed on cells; test: cell-based or functional assay; settings: not given

| Molecule | internalization efficiency on SUM190, normalized to chimeric parental antibody (Fab-ZAP, CTG), experiment 1 | internalization efficiency on SUM190, normalized to chimeric parental antibody (Fab-ZAP, CTG), experiment 2 |
| --- | --- | --- |
| B1 | 83.6 % of chimeric parental | 67.6 % of chimeric parental |
| B2 | 81.9 % of chimeric parental | 61 % of chimeric parental |
| B3 | 71.5 % of chimeric parental | 52.4 % of chimeric parental |
| B4 | 81.3 % of chimeric parental | 86 % of chimeric parental |
| B5 | 71.3 % of chimeric parental | 54.5 % of chimeric parental |
| B6 | 69.7 % of chimeric parental | 63.5 % of chimeric parental |
| B7 | 78.7 % of chimeric parental | 92.8 % of chimeric parental |
| B8 | 129 % of chimeric parental | 73.1 % of chimeric parental |
| B9 | 89.6 % of chimeric parental | 74.8 % of chimeric parental |
| B10 | 88.5 % of chimeric parental | 61.3 % of chimeric parental |
| B11 | 132 % of chimeric parental | 65.2 % of chimeric parental |

molecular target: T1, human Nectin-4 expressed on cells; test: cell-based or functional assay; settings: not given; remark: another data set of the same source

| Molecule | internalization efficiency on MDA-MB-468, normalized to chimeric parental antibody (Fab-ZAP, CTG), first column | internalization efficiency on MDA-MB-468, normalized to chimeric parental antibody (Fab-ZAP, CTG), second column |
| --- | --- | --- |
| B1 | 64.2 % of chimeric parental | 64.2 % of chimeric parental |
| B2 | 43.8 % of chimeric parental | 43.8 % of chimeric parental |
| B3 | 33.4 % of chimeric parental | 33.4 % of chimeric parental |
| B4 | 39.4 % of chimeric parental | 39.4 % of chimeric parental |
| B5 | 61.6 % of chimeric parental | 61.6 % of chimeric parental |
| B6 | 58.5 % of chimeric parental | 58.5 % of chimeric parental |
| B7 | 66.3 % of chimeric parental | 66.3 % of chimeric parental |
| B8 | 79 % of chimeric parental | 79 % of chimeric parental |
| B9 | 58.7 % of chimeric parental | 58.7 % of chimeric parental |
| B10 | 51.8 % of chimeric parental | 51.8 % of chimeric parental |
| B11 | 71.2 % of chimeric parental | 71.2 % of chimeric parental |

molecular target: T2, human Nectin-4; test: Binding to human Nectin-4 by SPR; settings: SPR association constant; second set (Table 7)
Protocol: (§1) The antibodies in Table 3 of Example 3 were cloned as human IgG1 isotype antibodies, produced and purified, then tested for binding to human Nectin-4. Affinity of the 16 humanized variants, as well as their association and dissociation constants were assessed by SPR analysis. Table 4 summarizes all the calculated constants (Affinity constant KD (nM), association constant ka (1/Ms) and dissociation constant kd (1/s)).
as §1, with “Table 6” for “Table 3”, “Example 5” for “Example 3”, “Table 7” for “Table 4”

| Molecule | ka |
| --- | --- |
| B1 | 200000 M⁻¹ s⁻¹ |
| B2 | 250000 ± 30000 M⁻¹ s⁻¹ |
| B3 | 230000 M⁻¹ s⁻¹ |
| B4 | 220000 M⁻¹ s⁻¹ |
| B5 | 190000 M⁻¹ s⁻¹ |
| B6 | 140000 M⁻¹ s⁻¹ |
| B7 | 130000 M⁻¹ s⁻¹ |
| B8 | 200000 M⁻¹ s⁻¹ |
| B9 | 160000 M⁻¹ s⁻¹ |
| B10 | 110000 M⁻¹ s⁻¹ |
| B11 | 250000 M⁻¹ s⁻¹ |

same assay, conditions: SPR dissociation constant; second set (Table 7)

| Molecule | kd |
| --- | --- |
| B1 | 0.0054 s⁻¹ |
| B2 | 0.0052 ± 0.0002 s⁻¹ |
| B3 | 0.0056 s⁻¹ |
| B4 | 0.0053 s⁻¹ |
| B5 | 0.0062 s⁻¹ |
| B6 | 0.0058 s⁻¹ |
| B7 | 0.0051 s⁻¹ |
| B8 | 0.006 s⁻¹ |
| B9 | 0.0063 s⁻¹ |
| B10 | 0.0055 s⁻¹ |
| B11 | 0.0048 s⁻¹ |

same assay, conditions: SPR; human IgG1 isotype antibodies; second set (Table 7)

| Molecule | Kd |
| --- | --- |
| B1 | 26.8 nM |
| B2 | 21.6 ± 1.1 nM |
| B3 | 24.5 nM |
| B4 | 23.8 nM |
| B5 | 32.1 nM |
| B6 | 41.3 nM |
| B7 | 38.6 nM |
| B8 | 29.7 nM |
| B9 | 39.5 nM |
| B10 | 49 nM |
| B11 | 19.2 nM |

system: SUM190 cells subcutaneously engrafted in CB17-SCID mice; test: In vivo efficacy of ggfg-Dxd ADCs, Nectin-4 low/SUM190 mouse model of human breast cancer; settings: single i.v. injection 3 mg/kg; each antibody conjugated to ggfg-Dxd, DAR=8; FIG. 4
Protocol: SUM190 cells were subcutaneously engrafted in CB17-SCID immunodeficient mice at a dose of 0.5 million cells in 100 μl of Matrigel with growth factor diluted at ½ in PBS. When tumors reached a volume between 195 and 250 mm3, mice were randomized into groups of 9 mice for intravenous treatment with a single injection of 3 mg/kg of camptothecin ADCs. Tumor growths were followed twice a week. Kaplan Meier survival curves were established by using GraphPad Prism V7 software according to the following criteria: When the tumor volume reached 1500 mm3, mice were euthanized and considered dead on the day of sacrifice (D).

| Molecule | control of tumor growth |
| --- | --- |
| enfortumab [reference compound] | no longer showed the ability to control tumor growth |

molecular target: T1, human Nectin-4 expressed on cells; test: flow cytometry on SUM190 cells, MedFI at saturation; settings: not given
Protocol: The humanized antibodies in Table 3 of Example 3 and in Table 6 of Example 5 were cloned, produced and purified, then tested for binding to Nectin-4 expressing cells by flow cytometry. Binding of humanized variants in human IgG1 format was determined on the SUM190 cell line expressing high levels of Nectin-4.

| Molecule | Max MedFi |
| --- | --- |
| B1 | 24400 MedFI |
| B2 | 24800 MedFI |
| B3 | 18300 MedFI |
| B4 | 25300 MedFI |
| B5 | 18300 MedFI |
| B6 | 24800 MedFI |
| B7 | 24800 MedFI |
| B8 | 17800 MedFI |
| B9 | 23400 MedFI |
| B10 | 25000 MedFI |
| B11 | 17300 MedFI |
